Laboratory results from patent publication US8124835B2, “Acyl-coa-dependent diacylglycerol acyltransferas 1 (DGAT1) gene from Tropaeolum majus, protein encoded thereby and uses thereof” (National Research Council of Canada, priority 2006, dated 2012).
Where a chain is given by its changes, count along the chain named. Names and notes keep the numbering of the source. “Also recorded” adds a separate entry of the source.

Tested on: DGAT activity
Assay: DGAT activity of site-directed mutagenized (SDM) TmDGAT1s expressed in yeast quadruple mutant H1246 MATα
Assay type: biochemical, Tropaeolum majus
Excerpt: FIG. 13. Expression of site-directed mutagenized (SDM) TmDGAT1 cDNAs in yeast quadruple mutant H1246 MATα. (A) The nasturtium DGAT1 cDNAs in pYES2/NT plasmid were transformed into a yeast DGAT mutant strain: H1246 MATα. The specific SDM changes were: F2R=Phe^439 to Arg (SEQ. ID. NO: 4, refer to SEQ. ID. NO: 10 for the nucleotide sequence); P2R=Pro^216 to Arg (SEQ. ID. NO: 5, refer to SEQ. ID. NO: 11 for the nucleotide sequence); Y2G_W2G=Tyr^392 to Gly+Trp^395 to Gly (SEQ. ID. NO: 9, refer to SEQ. ID. NO: 15 for the nucleotide sequence); Y2A=Tyr^392 to Ala (SEQ. ID. NO: 8, refer to SEQ. ID. NO: 14 for the nucleotide sequence); S2A=Ser^197 to Ala (SEQ. ID. NO: 6, refer to SEQ. ID. NO: 12 for the nucleotide sequence) and E2V=E^145 to Val (SEQ. ID. NO: 7, refer to SEQ. ID. NO: 13 for the nucleotide sequence). Yeast cells transformed with pYES2/NT plasmid only was used as a control. The mutant, transformed with the native TmDGAT1, was used as a positive DGAT control. Following the induction in the presence of galactose, the transformants were lysed and assayed for DGAT activity. (B) Western blot of the SDM TmDGATs using an Anti-Xpress antibody. Following a 7 h lyse, a 15,000×g protein pellet isolated and proteins separated by SDS-PAGE.
FIG. 14. SDM TmDGATs (SnRK1 and Tyr-P sites) activity utilizing ^14C labeled erucoyl-CoA or oleoyl-CoA+sn-1,2-diolein or dierucin. SDM TmDGATs were transformed into yeast DGAT mutant, H1246 MATα, following induction by galactose the yeast were assayed for DGAT activity. Activity is expressed as a percent of native TmDGAT, with native TmDGAT activity set at 100%.
The TmDGAT1 ORF (SEQ. ID. NO: 2) in pYES2.1/V5-His-TOPO plasmid was transformed into a quadruple yeast mutant H1246MATα (Sandager et al, 2002) using the S.c. EasyComp™ transformation Kit (Invitrogen). Yeast cells transformed with pYES2.1/V5-His-TOPO plasmid only were used as a control. Transformants were selected by growth on synthetic complete medium lacking uracil (SC-ura), supplemented with 2% (w/v) glucose. The colonies were transferred into liquid SC-ura with 2% (w/v) glucose and grown at 28° C. overnight. The overnight cultures were diluted to an OD of 0.4 in induction medium (SC-ura+2% Galactose+1% Raffinose), and were induced for 24-36 hours at 28° C. Cells were collected and broken using glass beads. The crude protein concentration in the lysates was normalized using the Biorad assay based on the method of (Bradford, 1976) and assayed for DGAT activity. DGAT assays were conducted at pH 7.4, with shaking at 100 rev/min in a water bath at 30° C. for 60 min. Assay mixtures (0.5 ml final volume) contained 500 μg lysate protein normalized as described above, 90 mM HEPES-NaOH, 200 μM sn-1,2 diolein or sn-1,2 dierucin (pre-purified by TLC on 10% borate silica H plates) in 0.02% Tween-20, and 18 μM 1-^14C acyl-CoA (specific activity 2 nCi/nmol) as the acyl donor. The ^14C-labelled TAGs were isolated and counted as described above for insect cell expression.
To introduce point mutations into the Tropaeolum majus DGAT1 coding region, we used a QuikChange™ site-directed mutagenesis kit (Stratagene). Primers were complementary to opposite strands of pYES2.1/V5-His TOPO yeast expression vector (Invitrogen) containing the TmDGAT1 gene. During the PCR, primers were extended with PfuTurbo DNA polymerase. This polymerase replicated both strands with high fidelity and without displacing the mutated oligonucleotide primers. The cycling parameters used for site-directed mutagenesis were as follows: initial denaturation at 95° C. for 30 s, followed by 15 cycles at 95° C. for 30 s, 55° C. for 1 min, and 68° C. for 15 min, with termination at 68° C. for 15 min. Following the PCR reaction, the product was treated with DpnI endonuclease (target sequence: 5′-Gm6ATC-3′) which is specific for methylated and hemimethylated DNA, used to digest the parental DNA template and to select for the mutated DNA.

[1] = recombinant SDM protein from yeast H1246MATα

B1: P216R (protein)
chain: MAVAESSQNTTTMSGHGDSDLNNFRRRKPSSSVIEPSSSGFTSTNGVPATGHVAENRDQDRVGAMENATGSVNLIGNGGGVVIGNEEKQVGETDIRFTYRPSFPAHRRVRESPLSSDAIFKQSHAGLFNLCIVVLIAVNSRLIIENLMKYGWLIDTGFWFSSRSLGDWSIFMCCLTLPIFPLAAFIVEKLVQRNHISELVAVLLHVIVSTAAVLYRVIVILTCDSVYMSGVVLMLFGCIMWLKLVSYAHTSSDIRTLAKSGYKGDAHPNSTIVSCSYDVSLKSLAYFMVAPTLCYQPSYPRSSCIRKGWVVRQFVKLIVFIGLMGFIIEQYINPIVRNSKHPLKGDFLYAIERVLKLSVPNLYVWLCMFYSFFHLWLNILAELLRFGDREFYKDWWNAKTVAEYWKMWNMPVHRWMVRHLYFPCLRNGIPKEGAIIIAFLVSGAFHELCIAVPCHVFKLWAFIGIMFQVPLVLITNYLQEKFSNSMVGNMIFWFIFCILGQPMCVLLYYHDLINLKEK
With B1 the “DGAT1 activity compared to recombinant WT TmDGAT1 (in words)” value (recombinant SDM protein from yeast H1246MATα, listed as Proline^216 (changed to an Arg)) was “total loss of DGAT activity; also recorded: abolished” and the “DGAT1 activity compared to recombinant WT TmDGAT1 (in words)” value (recombinant SDM protein from yeast H1246MATα, listed as Proline^216 with Arginine) was “total loss of DGAT1 activity”.

B2: S197A: SDM TmDGAT1, Ser197 to Ala in putative SnRK1 phosphorylation motif (SEQ ID NO: 6) (protein, listed as Tropaeolum majus)
chain: B1 chain with S197A, R216P
With B2 the “increase in trierucin production compared to the native DGAT1” value (erucoyl-CoA:sn-1,2-dierucin pairing of substrates) was ~40% and the “increase in DGAT1 activity compared to wild type TmDGAT1” value [1] was “up to 125%”.

B3: Y392G + W395G (protein)
chain: B1 chain with R216P, Y392G, W395G
In the case of B3, the “DGAT1 activity compared to recombinant WT TmDGAT1 (in words)” value [1] is reported as “total loss of activity”.

B4: Y392A (protein)
chain: B1 chain with R216P, Y392A
In the case of B4, the “decrease in DGAT1 activity compared to wild type TmDGAT1” value [1] is reported as 80%.

B5: E145V: SDM TmDGAT1, Glu145 to Val in the catalytic site (SEQ ID NO: 7) (protein, listed as Tropaeolum majus)
chain: B1 chain with E145V, R216P
B5 was tested, and the “decrease in DGAT1 activity compared to wild type TmDGAT1” value [1] was 43%.
